Experimental data from patent publication US20240279304A1, “DSG2 COMPOSITIONS AND METHODS” (Arvada Therapeutics, Inc., priority 2021, published 2024).

Assays:
anti-DSG2 antibody [1] = experiment: electrochemical immunoassay; fusion polypeptide at 5 mg/mL (so in the source), antibody at 500 ng/mL
anti-DSG2 antibody [2] = experiment: anti-DSG2 antibody MSD assay; inhibition by the fusion polypeptide (fraction C per table title); antibody at 200 ng/mL
anti-DSG2 antibody [3] = experiment: anti-DSG2 antibody MSD assay; inhibition by the fusion polypeptide (fraction C per table title); antibody at 1000 ng/mL
[4] = Dynamic light scattering (DLS) of DSG2 fusion polypeptides; format: physicochemical; settings: average polymer distribution index
Source text: 6 candidates were compared to the reference sample.

anti-DSG2 antibody [5] = experiment: anti-DSG2 antibody meso scale discovery (MSD) assay, blocking of anti-DSG2 antibody; format: binding; settings: for % inhibition: fraction C (table title)
Protocol: (§1) The DSG2 fusion polypeptides were tested for the ability to block anti-DSG2 antibody by an anti-DSG2 antibody meso scale discovery (MSD) assay. […] The DSG2 fusion polypeptides were subjected to size exclusion chromatography and different elution fractions were examined. […] As shown in Table 7 and FIG. 1B, FIG. 1C, and FIG. 1D, enriching for fraction C improved the ability of the DSG2 fusion polypeptides to block ARVC patient serum.

[6] = test system: ARVC serum (anti-DSG2 antibodies in serum obtained from ARVC patients); experiment: anti-DSG2 antibody MSD assay, blocking of ARVC patient serum; format: binding, human; parameters: % inhibition: concentration or dose not given beside the values; settings: for effect of enriching for fraction C on ability to block ARVC patient serum (in words): fraction C vs whole preparation, FIG. 1B-1D; for % inhibition: fraction C (table title)
Protocol: as §1
ARVC diagnosis is based on complex tool known as Task Force Criteria, which can lead to varying levels of conviction about ARVC diagnosis. The utility of DSG2 antibodies as an indicator of ARVC disease state and severity was explored. Approximately 50 cc serum was collected from diagnosed ARVC patients. A total of 10 ARVC patients and 5 healthy controls were used for the analysis. ARVC serum samples were separated into more robust diagnosis and less robust diagnosis, based on available data in the patient medical records and anti-DSG2 antibody levels were compared using an anti-DSG2 antibody meso scale discovery (MSD)-based assay.

[7] = sample: Anti-DSG2 antibody (200 ng/mL) control
[8] = sample: Anti-DSG2 antibody (1000 ng/mL) control

DSG2-(IgG4)Fc (DSG2FP#6) (Fc fusion)
% inhibition (anti-DSG2 antibody [1]): > 80%

DSG2-GGGGS-(IgG1)Fc (DSG2FP#3) (Fc fusion)
% inhibition (anti-DSG2 antibody [2]): 61.2%
% inhibition (anti-DSG2 antibody [3]): 85.5%

DSG2-(IgG1)Fc (DSG2FP#2) (Fc fusion)
% inhibition (anti-DSG2 antibody [2]): 54.5%
% inhibition (anti-DSG2 antibody [3]): 81.6%

DSG2FP#7: DSG2 extracellular domain (50-609 of SEQ ID NO: 1); GGGGS peptide linker; IgG4 Fc domain
PDI [4]: 0.30
ability to bind to and block anti-DSG2 antibody (in words) (anti-DSG2 antibody [5]): able to bind to and block anti-DSG2 antibodies

DSG2-GGGGS-(IgG4)Fc (DSG2FP#7) (Fc fusion)
% inhibition (anti-DSG2 antibody [1]): > 80%

DSG2-EAAAK-(IgG1)Fc (DSG2FP#4) (Fc fusion)
% inhibition (anti-DSG2 antibody [2]): 61.2%
% inhibition (anti-DSG2 antibody [3]): 85.5%

DSG2FP#5: IgG1 Fc 104-330 (L234A, L235A, P329G; SEQ ID NO: 31); DSG2 extracellular domain (50-609 of SEQ ID NO: 1)
PDI [4]: 0.31
ability to bind to and block anti-DSG2 antibody (in words) (anti-DSG2 antibody [5]): able to bind to and block anti-DSG2 antibodies

DSG2FP#6: DSG2 extracellular domain (50-609 of SEQ ID NO: 1); IgG4 Fc 99-327 (S228P, L235E, P329G) SEQ ID NO: 32
PDI [4]: 0.32
ability to bind to and block anti-DSG2 antibody (in words) (anti-DSG2 antibody [5]): able to bind to and block anti-DSG2 antibodies

B1: DSG2FP#3: DSG2 extracellular domain (50-609); linker GGGGS; IgG1 Fc 104-330 (L234A, L235A, P329G) SEQ ID NO: 31 (protein)
chain: AWITAPVALREGEDLSKKNPIAKIHSDLAEERGLKITYKYTGKGITEPPFGIFVFNKDTGELNVTSILDREETPFFLLTGYALDARGNNVEKPLELRIKVLDINDNEPVFTQDVFVGSVEELSAAHTLVMKINATDADEPNTLNSKISYRIVSLEPAYPPVFYLNKDTGEIYTTSVTLDREEHSSYTLTVEARDGNGEVTDKPVKQAQVQIRILDVNDNIPVVENKVLEGMVEENQVNVEVTRIKVFDADEIGSDNWLANFTFASGNEGGYFHIETDAQTNEGIVTLIKEVDYEEMKNLDFSVIVANKAAFHKSIRSKYKPTPIPIKVKVKNVKEGIHFKSSVISIYVSESMDRSSKGQIIGNFQAFDEDTGLPAHARYVKLEDRDNWISVDSVTSEIKLAKLPDFESRYVQNGTYTVKIVAISEDYPRKTITGTVLINVEDINDNCPTLIEPVQTICHDAEYVNVTAEDLDGHPNSGPFSFSVIDKPPGMAEKWKIARQESTSVLLQQSEKKLGRSEIQFLISDNQGFSCPEKQVLTLTVCECLHGSGCREAQHDSYVGGGGGGSDKTHTCPPCPAPEAAGGPSVFLFPPKPKDTLMISRTPEVTCVVVDVSHEDPEVKFNWYVDGVEVHNAKTKPREEQYNSTYRVVSVLTVLHQDWLNGKEYKCKVSNKALGAPIEKTISKAKGQPREPQVYTLPPSRDELTKNQVSLTCLVKGFYPSDIAVEWESNGQPENNYKTTPPVLDSDGSFFLYSKLTVDKSRWQQGNVFSCSVMHEALHNHYTQKSLSLSPGK
PDI [4]: 0.30
ability to bind to and block anti-DSG2 antibody (in words) (anti-DSG2 antibody [5]): able to bind to and block anti-DSG2 antibodies
% inhibition (anti-DSG2 antibody [5]; [7]): 61.2%
% inhibition (anti-DSG2 antibody [5]; [8]): 85.5%
% inhibition (anti-DSG2 antibody [5]; sample: no antibody control): 0.7%
effect of enriching for fraction C on ability to block ARVC patient serum (in words) [6]: more pronounced
% inhibition ([6]; sample: ARVC serum 1): 9.2%
% inhibition ([6]; sample: ARVC serum 2): 27.6%
% inhibition ([6]; sample: ARVC serum 3): 15.5%
% inhibition ([6]; sample: ARVC serum 4): −5.6%
% inhibition ([6]; sample: ARVC serum 5): 20.6%

B2: DSG2FP#2: DSG2 extracellular domain (50-609 of SEQ ID NO: 1); IgG1 Fc 104-330 (L234A, L235A, P329G) SEQ ID NO: 31 (protein)
chain: AWITAPVALREGEDLSKKNPIAKIHSDLAEERGLKITYKYTGKGITEPPFGIFVFNKDTGELNVTSILDREETPFFLLTGYALDARGNNVEKPLELRIKVLDINDNEPVFTQDVFVGSVEELSAAHTLVMKINATDADEPNTLNSKISYRIVSLEPAYPPVFYLNKDTGEIYTTSVTLDREEHSSYTLTVEARDGNGEVTDKPVKQAQVQIRILDVNDNIPVVENKVLEGMVEENQVNVEVTRIKVFDADEIGSDNWLANFTFASGNEGGYFHIETDAQTNEGIVTLIKEVDYEEMKNLDFSVIVANKAAFHKSIRSKYKPTPIPIKVKVKNVKEGIHFKSSVISIYVSESMDRSSKGQIIGNFQAFDEDTGLPAHARYVKLEDRDNWISVDSVTSEIKLAKLPDFESRYVQNGTYTVKIVAISEDYPRKTITGTVLINVEDINDNCPTLIEPVQTICHDAEYVNVTAEDLDGHPNSGPFSFSVIDKPPGMAEKWKIARQESTSVLLQQSEKKLGRSEIQFLISDNQGFSCPEKQVLTLTVCECLHGSGCREAQHDSYVGDKTHTCPPCPAPEAAGGPSVFLFPPKPKDTLMISRTPEVTCVVVDVSHEDPEVKFNWYVDGVEVHNAKTKPREEQYNSTYRVVSVLTVLHQDWLNGKEYKCKVSNKALGAPIEKTISKAKGQPREPQVYTLPPSRDELTKNQVSLTCLVKGFYPSDIAVEWESNGQPENNYKTTPPVLDSDGSFFLYSKLTVDKSRWQQGNVFSCSVMHEALHNHYTQKSLSLSPGK
PDI [4]: 0.32
ability to bind to and block anti-DSG2 antibody (in words) (anti-DSG2 antibody [5]): able to bind to and block anti-DSG2 antibodies
% inhibition (anti-DSG2 antibody [5]; [7]): 54.5%
% inhibition (anti-DSG2 antibody [5]; [8]): 81.6%
% inhibition (anti-DSG2 antibody [5]; sample: no antibody control): −19.1%
effect of enriching for fraction C on ability to block ARVC patient serum (in words) [6]: more pronounced
% inhibition ([6]; sample: ARVC serum 1): 3.0%
% inhibition ([6]; sample: ARVC serum 2): 33.5%
% inhibition ([6]; sample: ARVC serum 3): 26.0%
% inhibition ([6]; sample: ARVC serum 4): 51.1%
% inhibition ([6]; sample: ARVC serum 5): 41.8%

B3: DSG2FP#4: DSG2 extracellular domain (50-609); linker EAAAK; IgG1 Fc 104-330 (L234A, L235A, P329G) SEQ ID NO: 31 (protein)
chain: AWITAPVALREGEDLSKKNPIAKIHSDLAEERGLKITYKYTGKGITEPPFGIFVFNKDTGELNVTSILDREETPFFLLTGYALDARGNNVEKPLELRIKVLDINDNEPVFTQDVFVGSVEELSAAHTLVMKINATDADEPNTLNSKISYRIVSLEPAYPPVFYLNKDTGEIYTTSVTLDREEHSSYTLTVEARDGNGEVTDKPVKQAQVQIRILDVNDNIPVVENKVLEGMVEENQVNVEVTRIKVFDADEIGSDNWLANFTFASGNEGGYFHIETDAQTNEGIVTLIKEVDYEEMKNLDFSVIVANKAAFHKSIRSKYKPTPIPIKVKVKNVKEGIHFKSSVISIYVSESMDRSSKGQIIGNFQAFDEDTGLPAHARYVKLEDRDNWISVDSVTSEIKLAKLPDFESRYVQNGTYTVKIVAISEDYPRKTITGTVLINVEDINDNCPTLIEPVQTICHDAEYVNVTAEDLDGHPNSGPFSFSVIDKPPGMAEKWKIARQESTSVLLQQSEKKLGRSEIQFLISDNQGFSCPEKQVLTLTVCECLHGSGCREAQHDSYVGEAAAKDKTHTCPPCPAPEAAGGPSVFLFPPKPKDTLMISRTPEVTCVVVDVSHEDPEVKFNWYVDGVEVHNAKTKPREEQYNSTYRVVSVLTVLHQDWLNGKEYKCKVSNKALGAPIEKTISKAKGQPREPQVYTLPPSRDELTKNQVSLTCLVKGFYPSDIAVEWESNGQPENNYKTTPPVLDSDGSFFLYSKLTVDKSRWQQGNVFSCSVMHEALHNHYTQKSLSLSPGK
PDI [4]: 0.32
ability to bind to and block anti-DSG2 antibody (in words) (anti-DSG2 antibody [5]): able to bind to and block anti-DSG2 antibodies
% inhibition (anti-DSG2 antibody [5]; [7]): 61.2%
% inhibition (anti-DSG2 antibody [5]; [8]): 85.5%
% inhibition (anti-DSG2 antibody [5]; sample: no antibody control): 0.7%
% inhibition ([6]; sample: ARVC serum 1): 6.0%
% inhibition ([6]; sample: ARVC serum 2): 9.2%
% inhibition ([6]; sample: ARVC serum 3): −8.0%
% inhibition ([6]; sample: ARVC serum 4): 0.8%
% inhibition ([6]; sample: ARVC serum 5): 2.0%
